Source: patent US20050197296A1, “Agents for preventing and treating thrombocytopenia” (CHUGAI SEIYAKU KABUSHIKI KAISHA, priority 1996, published 2005)

Assays:
platelet counts = test: Test for single-dose administration to mouse (platelet increasing action); type: in vivo, C57B1/6N mice; conditions: single dose 10 μg/kg through the tail vein, 6 and 9 h after the administration
Method: Nine-week old male C57B1/6N mice as purchased from Japan Charles River Co. Ltd. were used in the experiment.
Human PTH(1-84) was dissolved in a citrate buffer (pH 5; containing 0.05% of Tween 80) at final concentrations of 1, 0.2 and 0.04 ˜g/mL so as to prepare the drug solutions to be administered.
Each of the thus prepared drug solutions and a control (citrate buffer) was administered to 15 mice through the tail vein in a volume of 10 mL/kg. […] The administration was initiated at 10 a.m.
After 3, 6 and 9 hours of the administration, five mice were picked up at random from each group of animals and blood samples were withdrawn through the orbital vein. At 10 a.m. on the same day, separate blood samples were taken from untreated mice (four in number) to obtain the preadministration value. Peripheral corpuscle counts were obtained with an automatic corpuscle counter F-800 (TOA MEDICAL ELECTRONICS CO., LTD

platelet count [1] = test: Effectiveness of PTH derivative, daily administration to mouse; type: in vivo, C57B1/6N mice; conditions: 200 μg/kg subcutaneous once a day for six days, blood 24 h after final administration
Method: Ten-week old male C57B1/6N mice as purchased from Japan Charles River Co., Ltd. were used in the experiment.
Drug solutions to be administered were prepared basically from human PTH(1-84) and human PTH(1-34) by the same procedure as in Example 1 to give a drug concentration of 20 μg/mL.
Eighteen mice were divided into three groups, which were administered subcutaneously with the two drug solutions and a control (citrate buffer) for six days on a once-a-day basis in a volume of 10 mL/kg. […] The administration was initiated at 10 a.m.
After 24 h of the final administration, a blood sample was withdrawn from each mouse through the orbital vein. Peripheral corpuscle counts were obtained with an automatic corpuscle counter F-800 (TOA MEDICAL ELECTRONICS CO., LTD).

platelet count [2] = test: Test for daily administration to rabbit (platelet increasing action); type: in vivo, Japanese albino rabbits JW/CSK; conditions: 200 μg/kg subcutaneous daily
Method: Six 12-15 week old male Japanese albino rabbits JW/CSK were used in the experiment. The animals were individually kept in aluminum rabbit bracket cages Rb-1 (350^w×500^d×350^h mm) in a vavarium in a specific pathogen-free environment under the following conditions: temperature, 24±2° C.; humidity, 50±10%; illumination, light turned on at 5:00 and turned off at 19:00; ventilation, 15 changes/hr. Each animal was supplied with 120 g of a radiation-sterilized feed for rabbits RM (purchased from Funahashi Farm) per day. The animals were also allowed to drink to tap water ad libitum from an automatic water feeder.
Human PTH(1-84) was administered in a volume of 2 mL/vial at a concentration of 200 μg/mL. A solvent was also supplied in a volume of 2 mL/vial. Both the drug and the control were stored at −135° C. until use.
PTH (200 μg/kg) was administered to the rabbits subcutaneously at the back of their neck for 13 consecutive days. The solvent was similarly administered in the same volume as the dose of a rh-PTH solution calculated from their body weight.
Blood samples (0.5 mL) were withdrawn from the rabbits through the lateral auricular vein before the administration and on days 2, 6, 9 and 13 during the administration period. […]

platelet count [3] = test: Test for daily administration to mouse (platelet increasing action); type: in vivo, C57B1/6N mice; conditions: subcutaneous once a day
Method: Nine-week old male C57B1/6N mice as purchased from Japan Charles River Co., Ltd. were used in the experiment.
Drug solutions to be administered were prepared basically by the same procedure as in Example 1 to give drug concentrations of 5, 20 and 80 μg/mL.
The mice under test were divided into four groups, which were administered subcutaneously with the three drug solutions and a control (citrate buffer) once a day in a volume of 10 mL/kg. […] The administration was initiated at 10 a.m.
On days 5, 7 and 9 after the start of administration, five or six mice were picked up at random from each group of animals and blood samples were withdrawn through the orbital vein. The sampling of blood was timed to occur 24 h of the final administration. Separate blood samples were taken from untreated mice (five in number) to obtain the value for normal mouse. Peripheral corpuscle counts were obtained with an automatic corpuscle counter F-800(TOA MEDICAL ELECTRONICS CO., LTD.).

[4] = test system: BFU-E (precursor cells of erythrocytes); conditions: literature report, J. Clin. Invest. Vol. 67, 1263-1269:1981; cited from earlier work
[5] = test system: CFU-GM (precursor cells of granulocytes and macrophages); conditions: literature report, J. Clin. Invest. Vol. 67, 1263-1269:1981; cited from earlier work

B1: human PTH(1-84) (protein, UniProt P01270 32-115, looked up)
Parathyroid hormone: SVSEIQLMHNLGKHLNSMERVEWLRKKLQDVHNFVALGAPLAPRDAGSQRPRKKEDNVLVESHEKSLGEADKADVNVLTKAKSQ
modifications: Parathyroid hormone
Platelet counts
  platelet counts versus control: significant increase in platelet counts over the control
Platelet count [1]
  platelet increasing action: platelet increasing action
Platelet count [2]; day 2 until day 6
  platelet count relative to the initial value: two to four times as great as the initial value
Platelet count [2]; day 13
  platelet count relative to the initial level: substantially returned to the initial level
Platelet count [3]; 200 and 800 μg/kg, day 5
  platelet count: tendency to increase
Platelet count [3]; all treated groups (50, 200 and 800 μg/kg), day 7
  platelet count versus control: significantly higher in platelet count than the control

B2: parathyroid hormone (PTH): PTH as studied in the literature report by Meytes et al; form and species not printed (protein, UniProt P01270 32-115, looked up)
Parathyroid hormone: B1 Parathyroid hormone
modifications: Parathyroid hormone
[4]
  in vitro colony formation by BFU-E: interfered with the in vitro colony formation
[5]
  in vitro colony formation by CFU-GM: interfered with the in vitro colony formation
